According to patent US20120093814A1, “Fusion Proteins Comprising Canine FC Portions” (BOEHRINGER INGELHEIM INTERNATIONAL GMBH, priority 2009, published 2012):
Positions of bridges follow the written chain, without caps; N, C: chain ends. No end group written: not given here.

Legend:
[1] = target: T1, canine NPRA (natriuretic peptide receptor A), full length, stably expressed on HEK293 cells (canine (dog), UniProt A0A8I3MHU3 32-1060); experiment: cell-based or functional assay
T1 sequence: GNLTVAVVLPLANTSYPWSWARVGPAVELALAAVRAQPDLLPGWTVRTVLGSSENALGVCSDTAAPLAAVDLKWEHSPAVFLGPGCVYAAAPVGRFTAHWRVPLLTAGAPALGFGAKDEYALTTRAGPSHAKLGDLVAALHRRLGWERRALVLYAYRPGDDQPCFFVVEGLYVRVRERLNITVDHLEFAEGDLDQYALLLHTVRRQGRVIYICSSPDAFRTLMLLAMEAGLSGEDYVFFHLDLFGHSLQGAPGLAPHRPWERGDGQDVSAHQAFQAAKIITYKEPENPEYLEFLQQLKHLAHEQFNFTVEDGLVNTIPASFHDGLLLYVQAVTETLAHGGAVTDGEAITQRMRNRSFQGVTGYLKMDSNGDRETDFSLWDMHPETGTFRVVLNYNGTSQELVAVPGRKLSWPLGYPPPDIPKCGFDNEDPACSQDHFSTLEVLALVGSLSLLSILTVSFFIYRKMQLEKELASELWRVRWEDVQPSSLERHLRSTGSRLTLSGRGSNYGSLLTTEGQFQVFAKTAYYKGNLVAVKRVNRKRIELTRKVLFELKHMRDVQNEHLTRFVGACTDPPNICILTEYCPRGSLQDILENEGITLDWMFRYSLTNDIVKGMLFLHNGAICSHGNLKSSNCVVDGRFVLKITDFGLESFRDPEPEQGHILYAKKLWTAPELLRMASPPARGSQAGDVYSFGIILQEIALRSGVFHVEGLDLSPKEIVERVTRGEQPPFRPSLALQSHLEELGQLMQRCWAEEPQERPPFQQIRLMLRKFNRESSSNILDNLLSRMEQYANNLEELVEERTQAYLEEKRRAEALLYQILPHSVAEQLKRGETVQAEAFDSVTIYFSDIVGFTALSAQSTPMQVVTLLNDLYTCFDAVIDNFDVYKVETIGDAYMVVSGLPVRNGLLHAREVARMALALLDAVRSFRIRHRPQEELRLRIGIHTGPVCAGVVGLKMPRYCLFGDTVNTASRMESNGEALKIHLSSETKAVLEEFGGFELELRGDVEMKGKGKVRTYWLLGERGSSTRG

[2] = target: T1, canine NPRA (natriuretic peptide …); experiment: cell-based or functional assay; remark: listed apart in the source
[3] = target: canine NPRA (natriuretic peptide receptor A), full length, stably expressed on HEK293 cells (canine (dog)); experiment: cell-based or functional assay
[4] = test system: conscious telemeterized beagles; experiment: Hemodynamic assessment in telemeterized conscious dogs (Study #1 and Study #2); format: in vivo, dog; conditions: for effect on HR (figure legend) / effect on mean arterial blood pressure (figure legend): Days 1-4 post-dose
Description: The criteria for dose selection was that the dose could not decrease mean arterial blood pressure more than 5-10 mmHg below baseline, and that it should increase plasma cGMP concentration approximately 1.5×-2× above baseline. […] In study #1, a total of 5 dogs were dosed subcutaneously with vehicle, or ANP-caFc at 0.5, 1 and 2.5 mg/kg based on a modified Latin square design over a 4-week period. This dose-range was chosen because it was expected to overlap the targeted plasma cGMP elevation based on the single dose dog PK study. The dosing interval was 7 days. One animal was excluded from the final data analysis due to a failure of telemetry device during the study. ANP-caFc produced a dose-dependent increase in peak plasma levels of cGMP (3.7-, 3.5- and 6.6-fold—of vehicle day value FIG. 6), a dose-dependent peak reduction in mean arterial blood pressure (MAP; −13±5, −19±4, and −20±5 mmHg vs. vehicle—FIGS. 7A and 7B), and peak heart rate was increased (+30 ±10, +29 ±9, and +25 ±9 beats per minute—FIGS. 8A and 8B).
Since the MAP decreased more than 10 mmHg during the peak effect for all three doses, Study #2 was performed with lower doses (0.05 and 0.25 mg/kg) in the same 4 dogs using a similar study design. […] The 0.05 mg/kg dose of ANP-caFc had no effect of MAP (1.9±1.4 mmHg), HR (1.8±0.6 beats per minute), or plasma cGMP. (Urine samples were also collected for cGMP excretion measurements, however, samples were contaminated by drinking water and could not be used.)

[5] = Pharmacokinetics of ANP-caFc in conscious dogs following a single dose; format: in vivo, dog
Description: (§1) Dogs were administered a single IV dose (1 mg/kg or 17 nmol/kg) or SC dose (2.5 mg/kg or 42 nmol/kg) of ANP-caFc to assess PKPD over a period of 4 to 7 days. These doses were selected because they were similar to the dose-range employed to evaluate Cardeva (recombinant human serum albumin-BNP fusion protein) in dogs. […] The sensitivity of the ELISA used to reliably detect ANP-caFc in dog plasma was limited by having a minimum detection level in dog plasma of […]. In order to avoid plasma matrix effects, a minimum dilution of 1:50 was required when assaying beagle plasma. The linear range of the assay, in PBS, is […] to approximately 100 nM. In 2% beagle plasma the linear range of the curve is 1 nM to about 80 or 90 nM. FIG. 4 only provides an estimate of the estimated plasma levels and Table 2 presents the pharmacokinetics of ANP-caFc.

[6] = test system: plasma cGMP; experiment: Plasma cGMP levels in conscious dogs after IV and SC administration (preliminary PKPD); format: in vivo, dog; conditions: single SC dose 2.5 mg/kg
Description: as §1
Plasma cGMP following SC dosing appeared to be elevated above baseline ≧48 hours post-dose (FIG. 5).

[7] = single IV dose 1 mg/kg (17 nmol/kg)
[8] = single SC dose 2.5 mg/kg (42 nmol/kg)

SLRRSSCFGGRMDRIGAQSGLGCNSFRY (disulfide 7-23 (inferred)) [canine ANP28]
cGMP EC50 (nM), cGMP induction on canine NPRA cells [1]: 0.2 nM
EC50 in the canine NPRA cGMP assay [2]: ~1 nM

B1: ANP28-20aa-CalgGB-Fc (recombinant canine ANP28 - (GGS)6GG linker - canine IgG-B Fc fusion protein) (Fc fusion)
chain: SLRRSSCFGGRMDRIGAQSGLGCNSFRYGGSGGSGGSGGSGGSGGSGGCPKCPAPEMLGGPSVFIFPPKPKDTLLIARTPEVTCVVVDLDPEDPEVQISWFVDGKQMQTAKTQPREEQFNGTYRVVSVLPIGHQDWLKGKQFTCKVNNKALPSPIERTISKARGQAHQPSVYVLPPSREELSKNTVSLTCLIKDFFPPDIDVEWQSNGQQEPESKYRTTPPQLDEDGSYFLYSKLSVDKSRWQRGDTFICAVMHEALHNHYTQESLSHSPGK
modifications: C-terminal Lysine residue missing in all lots produced (mass spectrometry); Fc glycosylated (G0, G1, G2)
cGMP EC50 (nM), Dog NPRA; lot 8760-110.3 [3]: 3 nM
cGMP EC50 (nM), Dog NPRA; lot 8760-137 [3]: 2.5 nM
cGMP EC50 (nM), Dog NPRA; lot 8760-174 [3]: 5.4 nM
cGMP EC50 (nM), Dog NPRA; lot 9081-51 [3]: 8.3 nM
cGMP EC50 (nM), Dog NPRA; lot 9081-53 [3]: 9.4 nM

B2: ANP-caFc: canine ANP-Fc fusion protein dosed to dogs; Fc isotype not stated, nmol/kg doses fit the IgG-B fusion (protein)
chain: B1 chain
increase in peak plasma levels of cGMP, of vehicle day value ([4]; Study #1, SC 0.5 mg/kg): 3.7 fold
peak heart rate increase ([4]; Study #1, SC 0.5 mg/kg): +30 ±10 beats per minute
peak reduction in mean arterial blood pressure (MAP) vs. vehicle ([4]; Study #1, SC 0.5 mg/kg): −13±5 mmHg
increase in peak plasma levels of cGMP, of vehicle day value ([4]; Study #1, SC 1 mg/kg): 3.5 fold
peak heart rate increase ([4]; Study #1, SC 1 mg/kg): +29 ±9 beats per minute
peak reduction in mean arterial blood pressure (MAP) vs. vehicle ([4]; Study #1, SC 1 mg/kg): −19±4 mmHg
increase in peak plasma levels of cGMP, of vehicle day value ([4]; Study #1, SC 2.5 mg/kg): 6.6 fold
peak heart rate increase ([4]; Study #1, SC 2.5 mg/kg): +25 ±9 beats per minute
peak reduction in mean arterial blood pressure (MAP) vs. vehicle ([4]; Study #1, SC 2.5 mg/kg): −20±5 mmHg
effect on HR (figure legend) ([4]; Study #1, subcutaneous): dose-dependently increased
effect on mean arterial blood pressure (figure legend) ([4]; Study #1, subcutaneous): dose-dependently decreased
change in HR ([4]; Study #2, SC 0.05 mg/kg): 1.8±0.6 beats per minute
change in MAP ([4]; Study #2, SC 0.05 mg/kg): 1.9±1.4 mmHg
effect on plasma cGMP ([4]; Study #2, SC 0.05 mg/kg): no effect
change in MAP vs. vehicle ([4]; Study #2, SC 0.25 mg/kg): −6.6±1.6 mmHg
effect on plasma cGMP ([4]; Study #2, SC 0.25 mg/kg): moderate increase
increase in heart rate ([4]; Study #2, SC 0.25 mg/kg): 20±9 beats per minute
effect on HR (figure legend) ([4]; Study #2, subcutaneous): dose-dependently increased
effect on mean arterial blood pressure (figure legend) ([4]; Study #2, subcutaneous): dose-dependently decreased
AUC [5, 7]: 2.0 ± 0.46 µM·h
MRT [5, 7]: 12.2 ± 1.9 h
T½ [5, 7]: 8.3 ± 2.0 h
Vss [5, 7]: 0.107 ± 0.013 L/kg
AUC [5, 8]: 6.1 ± 0.3 µM·h
MRT [5, 8]: 41.6 ± 1.0 h
T½ [5, 8]: 15.4 ± 1.8 h
time plasma cGMP elevated above baseline post-dose [6]: ≥ 48 h
